Laboratory results as given in article PMC7299281.

Molecular target: prefusion S protein of SARS-CoV (SARS-CoV)

| Substance | IC50 of neutralisation of SARS-CoV pseudovirus [µg/mL] |
| --- | --- |
| COVA1-16 (antibody) | 2.5 |
| COVA2-02 (antibody) | 0.61 |
